We go through 30 compounds from patent US20220289791A1, “LACTATE DEHYDROGENASE INHIBITOR POLYPEPTIDES FOR USE IN THE TREATMENT OF CANCER” (UNIVERSITÉ CATHOLIQUE DE LOUVAIN, priority 2019, published 2022).

*1 amine or outer side, *2 acyl side, *3 side chain or, on linkers, in order; H or OH if unused. Where a SMILES comes first, the peptide text is derived from it. Bridges are numbered along the chain shown (N, C = ends). Where no end group is shown, it is not given here. [ ]: non-standard residue; d: D form. α,α'‑bisbromoxylene = α,α'-bisbromoxylene, a linker that cyclises the cysteines (bisbromoxylene cysteine cyclisation); C6F4(1,4-diyl) = Fc1c(F)c([*:2])c(F)c(F)c1[*:1]; mXylylene = c1cc(C[*:1])cc(C[*:2])c1; oXylylene = c1ccc(C[*:2])c(C[*:1])c1; pXylylene = c1cc(C[*:2])ccc1C[*:1]; Ala(cPr) = N[C@@H](CC1CC1)C(=O)O; tBuAla = CC(C)(C)C[C@H](N)C(=O)O; Aib = CC(C)(N)C(=O)O

T1 sequence (P07195 21-334): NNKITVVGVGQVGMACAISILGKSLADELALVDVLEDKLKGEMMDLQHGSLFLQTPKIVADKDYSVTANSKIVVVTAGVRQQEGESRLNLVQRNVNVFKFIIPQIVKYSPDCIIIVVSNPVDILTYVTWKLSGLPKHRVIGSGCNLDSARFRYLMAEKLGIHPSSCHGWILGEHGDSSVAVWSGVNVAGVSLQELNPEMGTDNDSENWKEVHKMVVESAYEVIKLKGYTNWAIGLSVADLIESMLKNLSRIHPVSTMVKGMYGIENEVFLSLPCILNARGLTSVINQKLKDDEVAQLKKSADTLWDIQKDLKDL
truncated LDHB (LDHBtr), sequence (P07195 21-334): as above

The first test concerns the target truncated LDHB (LDHBtr) (Homo sapiens, UniProt P07195). In words: Microscale thermophoresis (MST), Example 2, macrocycles against truncated LDHB. The class given is binding.
Conditions: not given
Here is the method:
MST measurements were performed on a Nanotemper Monolith NT.115 instrument (NanoTemper Technologies®) using Red-dye-NHS fluorescent labeling. Each LDH sample, purified to homogeneity, was labeled with the Monolith Red-dye-NHS 2nd generation labeling dye (NanoTemper Technologies®), according to the manufacturer's instructions. Measurements were performed in 50 mM sodium phosphate, pH 7.6, and 100 mM NaCl containing 0.05% Tween-20 in premium-treated capillaries (NanoTemper Technologies®). The final concentrations of either labeled protein in the assay were 100 nM. The ligands (NADH and peptides) were titrated in 1:1 dilutions following manufacturer's recommendations. All binding reactions were incubated for 5 min at room temperature after loading into capillaries. Experiments were performed in triplicates using 40% LED power, medium MST power, Laser On time 20 s and Laser Off time 3 s. Peptides were evaluated for their thermophoretic pattern, and Kd's were extracted from raw data at a 10 to 20 s MST on time according to manufacturer's instructions. Regarding interaction of 7 with LDH5, Kd was extracted from the raw fluorescence. A denaturation test was performed accordingly to manufacturer recommendation and excluded any nonspecific spectral interaction between 7 and the red-dye. All Kd's of interacting macrocycles and peptides were obtained in triplicate and corrected by taking into account the molecular weight of the TFA counter ion.
Background: Microscale thermophoresis detects binding through changes in fluorescence in a small temperature gradient.
As for `CC[C@H](C)[C@H](NC(=O)[C@H](CC(C)C)NC(=O)[C@H](CCCCN)NC(=O)[C@@H]1CSc2c(F)c(F)c(c(F)c2F)SC[C@H](N)C(=O)N[C@@H]([C@@H](C)O)C(=O)N[C@@H](CC(C)(C)C)C(=O)N[C@@H](CCCCN)C(=O)N1)C(N)=O` [CT-44, CT(mlL)KCKLI] (H-CT[tBuAla]KCKLI-NH2; linker 1-5 via C6F4(1,4-diyl); N-terminus assumed), the “MST binding to LDHBtr” value was “did not affect the binding properties”.

As to `CC[C@H](C)[C@H](NC(=O)[C@H](CC1CC1)NC(=O)[C@H](CCCCN)NC(=O)[C@@H]1CSc2c(F)c(F)c(c(F)c2F)SC[C@H](N)C(=O)N[C@@H]([C@@H](C)O)C(=O)N[C@@H](CC(C)C)C(=O)N[C@@H](CCCCN)C(=O)N1)C(N)=O` [CT-45, CTLKCK(cpA)I] (H-CTLKCK[Ala(cPr)]I-NH2; linker 1-5 via C6F4(1,4-diyl); N-terminus assumed), the “MST binding to LDHBtr” value is reported as “unaltered Kd value, or even a slightly improved Kd value”.

Staying with this test, now noted: MST traces at 10 s to 20 s on time.
`CC[C@H](C)[C@H](NC(=O)[C@H](CC(C)C)NC(=O)[C@H](CCCCN)NC(=O)[C@H](CCC(=O)O)NC(=O)[C@@H]1CSCc2cccc(c2)CSC[C@H](N)C(=O)N[C@@H](C)C(=O)N[C@@H]([C@@H](C)O)C(=O)N[C@@H](CC(C)C)C(=O)N1)C(N)=O` [MP6, CATLCEKLI] (H-CATLCEKLI-NH2; linker 1-5 via mXylylene) returned a Kd above 1000 µM.

`CC[C@H](C)[C@H](NC(=O)[C@H](CC(C)C)NC(=O)[C@H](CCCCN)NC(=O)[C@@H]1CSCc2ccccc2CSC[C@H](N)C(=O)N[C@@H]([C@@H](C)O)C(=O)N[C@@H](CC(C)C)C(=O)N[C@@H](CCCCN)C(=O)N1)C(N)=O` [MP8, CTLKCKLI] (H-CTLKCKLI-NH2; linker 1-5 via oXylylene; N-terminus assumed) registered a Kd of 25 µM.

On to `CC[C@H](C)[C@H](NC(=O)[C@H](CC(C)C)NC(=O)[C@H](CCCCN)NC(=O)[C@@H]1CSCc2ccc(cc2)CSC[C@H](N)C(=O)N[C@@H]([C@@H](C)O)C(=O)N[C@@H](CC(C)C)C(=O)N[C@@H](CCCCN)C(=O)N1)C(N)=O` [MP9, CTLKCKLI] (H-CTLKCKLI-NH2; linker 1-5 via pXylylene; N-terminus assumed), for which the Kd amounted to 113 µM.

Consider `CC[C@H](C)[C@H](NC(=O)[C@H](CC(C)C)NC(=O)[C@H](CCCCN)NC(=O)[C@@H]1CC(=O)NCCCC[C@H](NC(C)=O)C(=O)N[C@@H]([C@@H](C)O)C(=O)N[C@@H](CC(C)C)C(=O)N[C@@H](CCCCN)C(=O)N1)C(N)=O` [MP10, Ac-KTLKDKLI] (Ac-KTLKDKLI-NH2; lactam 1-5), for which binding was characterised by a dissociation constant (Kd) of 142 µM.

`CC[C@H](C)[C@H](NC(=O)[C@H](CC(C)C)NC(=O)[C@H](CCCCN)NC(=O)[C@@H]1CCC(=O)N[C@@H](C)C(=O)N[C@@H]([C@@H](C)O)C(=O)N[C@@H](CC(C)C)C(=O)N[C@@H](CCCCN)C(=O)N1)C(N)=O` [MP11, ATLKEKLI] (ATLKEKLI-NH2; lactam N-5) registered a Kd of 465 µM.

The next test has as its target T1, LDHBtr (Homo sapiens, UniProt P07195). In words: NMR WaterLOGSY binding screening.
Conditions: not given
Here is the method:
All experiments were acquired on a Bruker Ascend Avance III 600 MHz equipped with a broadband cryoprobe (Bruker® GmBH, Germany)
NMR WaterLOGSY was performed on samples prepared in 10% D2O buffer containing 50 mM sodium phosphate buffer, pH 7.6 and 100 mM NaCl. The concentration of LDH subunits was 15-20 μM. Ligand binding was detected using a NMR WaterLOGSY ephogsygpno.2 advance-version sequence with a […]. Water signal suppression was achieved using excitation sculpting scheme and a 50 ms spinlock was used to suppress protein background signal. For each experiment, 512 scans were collected to yield a 16K points FID. NMR WaterLOGSY intensity was corrected by plotting the intensity difference of the ligand NMR WaterLOGSY spectra recorded in the presence and absence of protein.
For NMR WaterLOGSY screening experiments a correction factor was applied to account for slight concentration variation between samples. To do so, 8 scans 1H NMR spectra with 50 ms spinlock were recorded before NMR WaterLOGSY experiments. The intensity ratio of the aliphatic region (0.700 ppm to 0.955 ppm) with and without protein was used as a correction factor to compare the NMR WaterLOGSY intensity of the polypeptides of interest with and without LDH subunits. An arbitrary threshold of 0.1, corresponding to a 10% decrease in the NMR WaterLOGSY signal intensity between the spectra with and without protein, was set to discriminate between binders and non-binders.
For `CC[C@H](C)[C@H](NC(=O)[C@H](CC(C)C)NC(=O)[C@H](CCCCN)NC(=O)[C@H](CCC(=O)O)NC(=O)[C@H](CCCCN)NC(=O)[C@H](CC(C)C)NC(=O)[C@@H](NC(=O)[C@H](C)N)[C@@H](C)O)C(=O)N[C@@H](C)C(=O)N1CCC[C@H]1C(=O)N[C@H](C(=O)N[C@@H](C)C(=O)N[C@@H](CCC(=O)O)C(N)=O)C(C)C` [LB13, ATLKEKLIAPVAE] (H-ATLKEKLIAPVAE-NH2; N-terminus assumed), the “NMR WaterLOGSY signal / saturation transfer” value is reported as “exact same NMR WaterLOGSY spectrum than LB19”.

The same test, now with this note: cyclic peptides at 800 μM.
Take “ACLKECLI [VS-142-BisAlk, cyclic peptide, cysteines alkylated using α,α′ bisbromoxylene]”: the “Binding using WaterLOGSY (800 μM)” value was “+ (binders)”.

As for “ACTLKCKLI (linker 2-6 via α,α'‑bisbromoxylene (inferred)) [LT021, cyclic peptide, cysteines alkylated using α,α′ bisbromoxylene]”, the “Binding using WaterLOGSY (800 μM)” value was “+ (binders)”.

Staying with this test, now noted: linear peptides at 800 μM, LDHBtr 15 μM.
Consider `CC[C@H](C)[C@H](NC(=O)[C@H](CC(C)C)NC(=O)[C@H](CCCCN)NC(=O)[C@H](CCC(=O)O)NC(=O)[C@H](CCCCN)NC(=O)[C@H](CC(C)C)NC(=O)[C@@H](NC(=O)[C@H](C)N)[C@@H](C)O)C(=O)N[C@@H](C)C(=O)N1CCC[C@H]1C(=O)N[C@H](C(=O)N[C@@H](C)C(=O)N[C@@H](CCC(=O)O)C(N)=O)C(C)C` [LB13, ATLKEKLIAPVAE] (H-ATLKEKLIAPVAE-NH2; N-terminus assumed), for which the “Binding using WaterLOGSY (800 μM)” value is “+ (binders)”.

Consider “AALKEKLI [LB8-A1, LB8 structural analogue]”, for which the “Binding using WaterLOGSY (800 μM)” value was “− (non-binders)”.

As for “ATAKEKLI (LB8-A2) [LB8 structural analogue]”, the “Binding using WaterLOGSY (800 μM)” value is given as “+ (binders)”.

For the compound “ATL(Aib)E(Aib)LI (ATL[Aib]E[Aib]LI; not fully specified (C-terminus)) [LB8-Aib3, LB8 structural analogue]”, the “Binding using WaterLOGSY (800 μM)” value was “+ (binders)”.

“ATL(Aib)EKLI (ATL[Aib]EKLI; not fully specified (C-terminus)) [LB8-Aib1, LB8 structural analogue]”: the “Binding using WaterLOGSY (800 μM)” value is given as “+ (binders)”.

“ATLAEALI (LB8-A3-A5) [LB8 structural analogue]”: the “Binding using WaterLOGSY (800 μM)” value was “+ (binders)”.

Consider “ATLAEKLI (LB8-A3) [LB8 structural analogue]”, for which the “Binding using WaterLOGSY (800 μM)” value is given as “+ (binders)”.

On to “ATLKAKLI (LB8-A4) [LB8 structural analogue]”, for which the “Binding using WaterLOGSY (800 μM)” value was “+ (binders)”.

Consider ATLKDQLI [LA8, linear polypeptide], for which the “Binding using WaterLOGSY (800 μM)” value was “+ (binders)”.

With “ATLKDQLIYNLLKEEQTPQ (LA19) [linear polypeptide]”, the “Binding using WaterLOGSY (800 μM)” value was “+ (binders)”.

On to “ATLKE(Aib)LI (ATLKE[Aib]LI; not fully specified (C-terminus)) [LB8-Aib2, LB8 structural analogue]”, for which the “Binding using WaterLOGSY (800 μM)” value is listed as “+ (binders)”.

For the compound “ATLKEALI (LB8-A5) [LB8 structural analogue]”, the “Binding using WaterLOGSY (800 μM)” value is reported as “+ (binders)”.

Turning to “ATLKEKL (LB8-AL7) [LB8 structural analogue]”, the “Binding using WaterLOGSY (800 μM)” value is “− (non-binders)”.

“ATLKEKLA (LB8-A7) [LB8 structural analogue]”: the “Binding using WaterLOGSY (800 μM)” value is recorded as “+ (binders)”.

Turning to “ATLKEKLG (LB8-G8) [LB8 structural analogue]”, the “Binding using WaterLOGSY (800 μM)” value was “+ (binders)”.

Turning to “Ac-ATLKEKLI [Ac-LB8, LB8 structural analogue]”, the “Binding using WaterLOGSY (800 μM)” value was “+ (binders)”.

As to “Ac-TLKEKLI [LB8-AcTI7, LB8 structural analogue]”, the “Binding using WaterLOGSY (800 μM)” value is reported as “− (non-binders)”.

Regarding “GTLKEKLI (LB8-G1) [LB8 structural analogue]”, the “Binding using WaterLOGSY (800 μM)” value is given as “+ (binders)”.

As for “TLKEKLI (LB8-TI7) [LB8-T17, LB8 structural analogue]”, the “Binding using WaterLOGSY (800 μM)” value is reported as “− (non-binders)”.

The next test has as its target T1, LDHBtr. In words: Microscale thermophoresis (MST), Example 1. The class given is binding. The note with it: linear peptides; read-out: Kd using MST experiment. Here is the method: MST measurements were performed on a Nanotemper Monolith NT.115 instrument (Nanotemper Technologies®, GmbH) using Red-dye-NHS fluorescent labeling. Each LDH (WT or truncated) sample, purified to homogeneity, was labeled with the Monolith RED-NHS 2nd generation labeling dye according to the supplied protocol (Nanotemper Technologies®, GmbH). Measurements were performed in 50 mM Na-Phosphate pH 7.6 and 100 mM NaCl containing 0.05% Tween-20 in premium treated capillaries (Nanotemper Technologies®, GmbH). The final concentrations of either labeled protein in the assay were 100 nM. The ligands (NADH and peptides) were titrated in 1:1 dilutions following manufacturer's recommendations. All binding reactions were incubated 5′ at room temperature after loading into capillaries. Experiments were performed in triplicates using 40% LED power and medium MST power, LaserOn time was 20 sec, Laser Off time 3 sec. Linear octapeptides were evaluated for their thermophoretic pattern.
Turning to `CC[C@H](C)[C@H](NC(=O)[C@H](C)NC(=O)[C@H](CCCCN)NC(=O)[C@H](CCC(=O)O)NC(=O)[C@H](CCCCN)NC(=O)[C@H](CC(C)C)NC(=O)[C@@H](NC(=O)[C@H](C)N)[C@@H](C)O)C(N)=O` [LB8-A6, ATLKEKAI] (H-ATLKEKAI-NH2), the Kd was above 10000 µM.

On to `CC[C@H](C)[C@H](NC(=O)[C@H](CC(C)C)NC(=O)[C@H](CCCCN)NC(=O)[C@H](CCC(=O)O)NC(=O)[C@H](CCCCN)NC(=O)CNC(=O)[C@@H](NC(=O)[C@H](C)N)[C@@H](C)O)C(N)=O` [LB8-G3, ATGKEKLI] (H-ATGKEKLI-NH2), for which the Kd was above 10000 µM.

A word on the Kd: it is the equilibrium constant for the complex coming apart.
